The target in one data set is thrombin (UniProt P00734;P00734 P00734:328-363,P00734:364-622). As to the kind of experiment: FP.
Data set [1] has as its target T1, PTK7 (protein tyrosine kinase 7), recombinant (UniProt Q13308 Q13308:31-704).
T1 sequence: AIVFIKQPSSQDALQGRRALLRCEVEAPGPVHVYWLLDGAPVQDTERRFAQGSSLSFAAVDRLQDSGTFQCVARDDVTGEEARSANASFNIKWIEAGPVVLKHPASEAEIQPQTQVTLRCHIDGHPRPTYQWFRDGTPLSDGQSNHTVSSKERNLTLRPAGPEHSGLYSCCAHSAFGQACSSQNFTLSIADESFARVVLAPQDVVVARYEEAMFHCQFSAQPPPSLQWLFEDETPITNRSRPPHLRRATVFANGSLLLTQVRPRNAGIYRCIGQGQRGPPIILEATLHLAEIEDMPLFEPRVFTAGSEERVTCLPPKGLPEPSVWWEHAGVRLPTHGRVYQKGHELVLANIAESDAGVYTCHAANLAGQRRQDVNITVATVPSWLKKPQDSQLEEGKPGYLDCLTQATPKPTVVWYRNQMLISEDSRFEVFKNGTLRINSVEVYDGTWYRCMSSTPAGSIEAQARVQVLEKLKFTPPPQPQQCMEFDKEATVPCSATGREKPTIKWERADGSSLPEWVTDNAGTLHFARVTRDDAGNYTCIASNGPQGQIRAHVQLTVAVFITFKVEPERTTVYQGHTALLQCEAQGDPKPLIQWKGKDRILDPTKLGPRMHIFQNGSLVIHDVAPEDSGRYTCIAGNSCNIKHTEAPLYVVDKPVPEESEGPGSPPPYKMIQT

The term Kd denotes the constant that tells how readily two partners part at equilibrium. A high value points to weaker binding.

On to GGTTGGTGTGGTTGG (ssDNA) [TBA unmodified], for which, in the data set with thrombin, binding was put at a Kd of 220 nM. That is a sub-micromolar value.
In the case of ATCTAACTGCTGCGCCGCCGGGAAAATACTGTACGGTTAGA (ssDNA, T27 conjugated to pyridinium oxime catalyst PyOx) [sgc8c(27)-PyOx], the binding result in data set [1] is listed as “binds”.
